Source: the supplement of paper PMC9732359
± gives the uncertainty stated by the source.

Assay: protein stability index of a GFP-peptide fusion (yeast GPS) (PSI 1-4); higher = more stable; sorted into four equal gates, so the index is relative within each strain
Procedure, shortened: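 Tiled 17-residue yeast protein peptides were fused downstream of GFP in a plasmid that also expresses Cherry, and the pooled library was carried in yeast. Mid-log cultures in leucine-free medium were sorted into four equal gates by GFP/Cherry fluorescence ratio, and plasmids from each gate were PCR-amplified and Illumina-sequenced, with reads assigned to strains by barcodes. The protein stability index for each peptide was each gate's read frequency times its gate number, summed.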

FHGTSTKANDKNESATI [FAS2]
protein stability index (doa10∆): 3.06 ± 0.12
protein stability index (pdr5∆): 2.8 ± 0.094
protein stability index (san1∆): 2.95 ± 0.075
protein stability index (ubr1∆): 2.91 ± 0.1

EKLTSKSLDEQLLLLSD [LRP1]
protein stability index (doa10∆): 3.16 ± 0.077
protein stability index (pdr5∆): 3.44 ± 0.065
protein stability index (san1∆): 2.94 ± 0.038
protein stability index (ubr1∆): 3.31 ± 0.036

LKYYQDLKNTRMKSITS [SNF5]
protein stability index (doa10∆): 1.45 ± 0.23
protein stability index (pdr5∆): 2.24 ± 0.19
protein stability index (san1∆): 2.4 ± 0.15
protein stability index (ubr1∆): 2.98 ± 0.22

SRRLMKSLEDLSCQYDN [RPO31]
protein stability index (doa10∆): 2.04 ± 0.11
protein stability index (pdr5∆): 1.42 ± 0.17
protein stability index (san1∆): 1.36 ± 0.2
protein stability index (ubr1∆): 1.27 ± 0.085

AVGNLGNAIEVTEDGSI [RPL22B]
protein stability index (doa10∆): 1.16 ± 0.13
protein stability index (pdr5∆): 1.45 ± 0.098
protein stability index (san1∆): 1.24 ± 0.19
protein stability index (ubr1∆): 1.27 ± 0.05

PFVLAENMWPFSYQEVE [CDC53]
protein stability index (doa10∆): 1.6 ± 0.037
protein stability index (pdr5∆): 1.9 ± 0.04
protein stability index (san1∆): 1.56 ± 0.051
protein stability index (ubr1∆): 2.25 ± 0.028

FEQDSHLRYQPDGVVVH [SNF6]
protein stability index (doa10∆): 3.09 ± 0.087
protein stability index (pdr5∆): 3.1 ± 0.078
protein stability index (san1∆): 3.07 ± 0.046
protein stability index (ubr1∆): 3.09 ± 0.061

EQNHLDNNYNTAETNNK [YDL088C/ASM4]
protein stability index (doa10∆): 3 ± 0.056
protein stability index (pdr5∆): 2.96 ± 0.067
protein stability index (san1∆): 3.02 ± 0.043
protein stability index (ubr1∆): 2.93 ± 0.065

LEMSTEDFVKLAPARVR [RPS15]
protein stability index (doa10∆): 2.83 ± 0.13
protein stability index (pdr5∆): 3.05 ± 0.1
protein stability index (san1∆): 3.07 ± 0.065
protein stability index (ubr1∆): 2.78 ± 0.07

FNAGSNPPSYQSSEDVI [RPB7]
protein stability index (doa10∆): 2.83 ± 0.24
protein stability index (pdr5∆): 2.67 ± 0.21
protein stability index (san1∆): 2.72 ± 0.27
protein stability index (ubr1∆): 2.65 ± 0.14

VPVIVKARFVSKLAEEK [RPL28]
protein stability index (doa10∆): 2.71 ± 0.024
protein stability index (pdr5∆): 2.832 ± 0.024
protein stability index (san1∆): 2.786 ± 0.018
protein stability index (ubr1∆): 2.861 ± 0.02

SKTHKTVSRAYGGSRCA [RPL34A]
protein stability index (doa10∆): 2.68 ± 0.071
protein stability index (pdr5∆): 2.91 ± 0.054
protein stability index (san1∆): 2.82 ± 0.064
protein stability index (ubr1∆): 2.85 ± 0.048

QTQQDLPKVRYNVEKVK [NSL1]
protein stability index (doa10∆): 2.7 ± 0.074
protein stability index (pdr5∆): 2.57 ± 0.063
protein stability index (san1∆): 2.75 ± 0.054
protein stability index (ubr1∆): 2.33 ± 0.079

SDNKKRSGSNAAASLPS [RPC82]
protein stability index (doa10∆): 2.89 ± 0.058
protein stability index (pdr5∆): 3.19 ± 0.06
protein stability index (san1∆): 2.86 ± 0.042
protein stability index (ubr1∆): 3 ± 0.038

PNLIEKMVAKGLNDLVE [BRR2]
protein stability index (doa10∆): 2.51 ± 0.17
protein stability index (pdr5∆): 2.82 ± 0.21
protein stability index (ubr1∆): 2.99 ± 0.18

KNQHRAASWYGSFNEMK [RMP1]
protein stability index (doa10∆): 2.89 ± 0.048
protein stability index (pdr5∆): 3.21 ± 0.055
protein stability index (san1∆): 3.12 ± 0.042
protein stability index (ubr1∆): 3.18 ± 0.038

KVEIKKVNSRDDSFFNE [PRP28]
protein stability index (doa10∆): 3.16 ± 0.082
protein stability index (pdr5∆): 3.31 ± 0.082
protein stability index (san1∆): 2.71 ± 0.092
protein stability index (ubr1∆): 3.38 ± 0.12

VHLSNGYKMIPGAKPLQ [FAS1]
protein stability index (doa10∆): 1.74 ± 0.072
protein stability index (pdr5∆): 2.02 ± 0.076
protein stability index (san1∆): 1.8 ± 0.088
protein stability index (ubr1∆): 1.81 ± 0.05

PRKLVLSSGENRYAFSQ [SMC4]
protein stability index (doa10∆): 1.39 ± 0.08
protein stability index (pdr5∆): 1.56 ± 0.058
protein stability index (san1∆): 1.72 ± 0.086
protein stability index (ubr1∆): 1.59 ± 0.054

AIKKSSMKMELLKKELL [SMC2]
protein stability index (doa10∆): 2.89 ± 0.17
protein stability index (pdr5∆): 2.19 ± 0.095
protein stability index (san1∆): 2.78 ± 0.2
protein stability index (ubr1∆): 2.13 ± 0.081

LAKIKEEEMAPYYKYLC [RPN7]
protein stability index (doa10∆): 1.28 ± 0.091
protein stability index (pdr5∆): 1.74 ± 0.25
protein stability index (ubr1∆): 1.37 ± 0.2

GVIIKVEESGEHVILGN [SNU114]
protein stability index (doa10∆): 2.65 ± 0.12
protein stability index (pdr5∆): 2.81 ± 0.086
protein stability index (san1∆): 3.2 ± 0.14
protein stability index (ubr1∆): 3 ± 0.073

QDLNQRFQDPYVAIVVD [RRI1]
protein stability index (pdr5∆): 2.79 ± 0.11
protein stability index (san1∆): 2.29 ± 0.15
protein stability index (ubr1∆): 2.71 ± 0.12

KCLVEKSICFENCLNND [SWI1]
protein stability index (doa10∆): 1.81 ± 0.097
protein stability index (pdr5∆): 2.67 ± 0.057
protein stability index (san1∆): 2.69 ± 0.064
protein stability index (ubr1∆): 2.61 ± 0.078

SSFSLTFFPRCIIAVSC [POP1]
protein stability index (doa10∆): 1.93 ± 0.029
protein stability index (pdr5∆): 1.86 ± 0.035
protein stability index (san1∆): 2.07 ± 0.054
protein stability index (ubr1∆): 2.03 ± 0.037

KGPLLIERIGHLLSINY [PCI8]
protein stability index (doa10∆): 2.35 ± 0.11
protein stability index (pdr5∆): 2.71 ± 0.15
protein stability index (ubr1∆): 3.11 ± 0.15
